Reference: publication PMC4231748, “Human PrimPol mutation associated with high myopia has a DNA replication defect”

Target: T1, PrimPolY89D1-354 (polymerase domain) (human, UniProt Q96LW4 1-354, Y89D)
T1 sequence: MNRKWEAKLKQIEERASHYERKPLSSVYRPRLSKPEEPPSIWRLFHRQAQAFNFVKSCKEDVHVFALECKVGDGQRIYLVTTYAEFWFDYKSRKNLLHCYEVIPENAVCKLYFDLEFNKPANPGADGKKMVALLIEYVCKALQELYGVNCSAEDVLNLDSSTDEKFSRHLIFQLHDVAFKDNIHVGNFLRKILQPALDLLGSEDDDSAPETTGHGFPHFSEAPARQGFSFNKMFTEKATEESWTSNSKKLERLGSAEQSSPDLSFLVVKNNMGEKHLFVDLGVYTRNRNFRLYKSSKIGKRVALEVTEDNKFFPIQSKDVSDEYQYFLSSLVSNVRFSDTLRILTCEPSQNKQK
Assay: EMSA; 10 mM Mg2+; EMSA: 60 nM DNA, 10 mM Bis-Tris-Propane-HCl pH 7.0, 10 mM MgCl2, 1 mM DTT, 25 C, 60 min; 5% polyacrylamide gel in 0.5x TBE
Details: protein: recombinant; label: 5'-Hex on strand 1 (HP-20); 20 bp duplex, 5' overhang 30 nt on template strand (S12), other end blunt

B1: Overhanging DNA substrate (HP-20 primer / ND-50 TemplateTT) (dsDNA)
DNA 1: TGTCGTCTGTTCGGTCGTTC
DNA 2: CGCGCAGGGCGCACAACAGCCTTGAAGACCGAACGACCGAACAGACGACA
Kd: 2550 nM
